Source: the domain aggregation screens of Martell et al. (2025)

Assay: soluble fraction after stress (log2 fold change); higher = more stays soluble; pooled small domains, quantitative proteomics
Conditions: stress: 75 degC
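Note: 20 min heating vs room temperature control held 20 min.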

| Sequence | soluble fraction (log2) |
| --- | --- |
| HMIANDDEIRKVVLEVIEEQPKAVEDVKNGRDRILDFLVGQVMKKTRGKANPSLASNLMKEEIEK | 0.453 |
| HMIANNFDEFVEKVSEAERKALNMPAGQEMTQKLLEMKLAANPNLTPEEWQRTKSEFMTFLFAVFVRE | -0.939 |
| HMIAVLEEGSHFRAVNDVTGKPFGPEMVIKNGQVTAVGKTISTKPKNLLGKKEGTKFVISGKQYVIKDI | -0.0244 |
| HMIDAHTALLAKRLEAKGMLPLTDKSSAEEIYAEFGISKKAFKKALGALYKERLVRIGEDGVVWI | -1.8 |
| HMIDFIGLEAKLLSTISGEKMGNAEVIVDGNVMNIYVKSLDTSEIKFRENVLIIKQSDDKNYYLVAKP | -3.26 |
| HMIDIDTILKKYKPGRRDELIPLMQEIQEVYGHLSEEAVVKIGTYVGLSTTKIYGLATFYDQFRF | -1.76 |
| HMIDLGKSRTWHSENGRAIEARVINISEEQQTVEMQRVDGLKFELSWNQLSKADQTLLAEAAKKTALVA | -0.0567 |
| HMIDLPDIDIDFAKRTGVLEHITHTPARLETGKQHNTGVYFTDIPRGVDGLATMDHKRAEQLGYFKLDML | 0.0214 |
| HMIDNKIIRSLRQKRNMTLEELAKKANISVSYLSEIELGKKQPSLETINKLSQALNISREGLI | -0.0581 |
| HMIDPHGSLTLDLRPRDARVEIIDSNKTYKPGVRLPMGEYAIAVSRRGYISETKRINIEYGDNRERVAL | 0.108 |
| HMIDSDENERIKELIKALISETLKSRGVSPEVISDIKERVDRLHNEELPRFAAELKELISRN | -0.0979 |
| HMIDSEEVMETIQDLGYSPVFDVKEKFYKIKEEQIGKITLEVHIILRYGMVDLVWIVRENGELLLG | -0.0952 |
| HMIDTLEYIISEESKGLRADQAITMVNGEFSRSLIQKWIKKGSILVNGKKIKPRDILNLNDKVTINPEEN | -0.24 |
| HMIEDMQQWIRQIREIVSNRLDLTRNISDDEIREVISDIVMEQSRQQYMSLNEKKTLMEGVFNSMR | -0.534 |
| HMIEEIETQFLFDFGLIGHPNSAKIREKLSEALGIGYVNGKQLQKRLMMFGITKQQVVDVLTD | -4.78 |
| HMIEMAGGYRKGDRVELHSLKGAAEHNGKQGTVVGPQGERVKVLLDDSDSKTLALKVTNLTKLESA | 0.0656 |
| HMIEMGNRIRTLRKRRVGSQSEFAEKLDVSVVTISRIENGMTKIDAELLIKMSEVLQVPVNIILGM | -3.29 |
| HMIENPGQTFERIAGKITRTLRTGPLRIQQLDLLFSESGEQVMDVLRAMAENGEILIKDDTIQWNGHN | -0.246 |
| HMIERKLRKKEHFIASVGEKVKIKNFATETYKGELISADNEKVVVETEFGKEEITYDNILAAATYFE | -0.808 |
| HMIFNENLKSAREKKGLSQKEVAEAIGVAKSTYSLYESGNREPNVQTIKRIADVLNVSADVLLGL | -0.136 |
| HMIGELVVEDLAAASEINVDTIRYYQRLGLLEPPRRRGRRAVYDHTHLERLAEIRRLAGAGFTLAQIGRLK | -3.19 |
| HMIGILSDREAEILALLDEGLTNKAIGRRLNLAEPTVKFHLKNLYAKLGVGRRQLAVNVAKGSGLLNSD | -1.4 |
| HMIGIRLKELVLKNQSAWVGLRVSELDISRKTMIVMIRRGDKMLIPNGSTILRSGDVLLLYTR | -0.682 |
| HMIGITTANLNVRTGTDTNYTSIAILPKGTKVNILEENVKPGWYKIQFDEIYAFVSSKYIKIQS | -3.56 |
| HMIGMDMQELIGRYKGDPDEMGKIELAAMSMLKLSEDMSSDHVLQKSKLRQDGLWLLKYVQE | -0.637 |
| HMIHEQSLHKIRNFIGSLPESLRTAFTLREQDGLSYEEIGKITNTPIGTVRSRIYRARESILDHINQE | -1.23 |

| Sequence | soluble fraction (log2) |
| --- | --- |
| HMIHIGAQEALGEFQDEEGNLTASKKEVVAALVKKSKEVSFPTSYEYEVAARMAADEYNDAGQRMA | 0.167 |
| HMIHKTDAINLGQRLLKSSLKEFDVSLKDIPNKTLMYILSEYKFNSLDDLYREIGLGNVIPKLVALRMAP | -0.585 |
| HMIHTYVETRKVGNNDGLIRVDNKYYRVPQHLVGMKVQIQIDEATISVLQGGVMVATLDKTADVFNPQA | -3.24 |
| HMIIDPQIRTLWTSQIIDILKSNPKRSIRSILELYPSNKESWVLIILQELIGEEKIIRDLDYLYFNK | -1.79 |
| HMIIIMKMGADESQVQETIKRIKDLGFNTHLSKGENRTIIGVIGDVSSIDESDVERLRATPYIAEVVRVS | -0.455 |
| HMIIIPKKDYDVSQLDNLVSWLKDRGLEVHISRGENLTVIGLIGDTSKIDIDLIRSLDVVEEVKRIQ | -0.749 |
| HMIIVMASSKKEDVAHVVHKIEELGYKAHVIVGVERTVVAAVGDERGKERLISLEALPHVEKVFPILK | -2.16 |
| HMIKEVEYSQFLQMTDQGEVGKVEINEQENSILFTDKAEKNIYKTGMVEDAELSMRLYEAGIPFSGQI | 0.101 |
| HMIKEYEVLNYVTYEYDEIKKKLEEDFGIIVLMKEAYSDETPAGIIMDQDVEQGRIFKEGATNTITFTVS | -0.582 |
| HMIKLSEAEWKVMKLLWEESPKTMMQITNLLKETTGWTKHTVMTFLKRMEEKKAIHYEEGGRAKLYYP | -0.863 |
| HMIKVASVDGASDELAHEIREIMPLDFPVSYFDLDIKYLHKVLNDIPAVESAAIKVTVSGVLQIDISER | 0.569 |
| HMILALAISSEEDDARIYATYADRLREAYPASARVFEGMVDEEHEHRRRLIDLFQRRFGDTIPLVRREHV | -0.446 |
| HMILNPADEEKMNLINFELQQRGLEINDKEMQYIFTHHSRDLNSLLNLAEKLDEISHQEKKSISINLIKKI | -0.0616 |
| HMILNWSEYTRSEIIELARDLSPDKYMIIDDINTYSKMKLLPSQAFIAEMFGSLRQFQKEAWGRE | -1.62 |
| HMILPKFNQLLGQMGENIKLARKRRKLTAVQVSERAGIARSTLYLIEKGDASVSLGAYFNVLRVLG | -1.67 |
| HMIMEVDYGTFMKMTEENAIGRVQMDSTEIIFTDKENTQVYSTGIMYDPDLTQRLYDAGAVFA | -0.536 |
| HMIMGTIEKRGPFSFRIGVQVRLPDGSWEWIRDTIHVSPDLSARAARKQAEMALARLEADVYEGKRKPD | -2.18 |
| HMIMLDRILKIMDYNKFTPSEFADVLEIDRSRLSHILNGRNKPSLEIVMKILEKFPEISSDWLLFGSGNML | -2.73 |
| HMIMNEYEELRDRYLIGQIWKIGDLIEAKGIEGKIIQRGTNYVTFNDNNGKVHKAWLHEIKYEQ | -0.433 |
| HMIMNKEIPVVADEFVEKEFGTGAVKLTPAHDPNDYESGERHGLEVVEVFDETGKMNDLVPEYEG | 0.757 |
| HMIMTGSIQEKNGKYYTVLNIKDKNGKYKKKWQTTGLPVKGNKRKAEQILRRRIAEYEANQL | -0.861 |
| HMIMTHSALLEKDGFDIVKVHFERPNDDGFDFLDMTLPGEIVYKSFGFSEDEILKLKRYAKNNSSLIWDF | -2.5 |
| HMINEDMTQSDRMELWGRLIDVVEDWLAEKGITEEDIPNEEREGVEDAAIIFGDDYDYLADRFSEVIGISR | -1.2 |
| HMINFKVKNVQDVGSRLDKFLVTNIPEFSRSKIQKHIKNGKVMVNGLLKKTGYKLEINDEINILNN | -0.521 |
| HMINLDYILELIFEKNNKTKDKTALIEEIRGVIRASVGNRAKESLIVDFINDTDLDTITDKASIIESFFEY | -2.97 |
| HMINLTKVGNFISIIKLQQIWTIDELLKKVDINYDELLYLLTILSDIYSKNGEYFFDFDIDAENNKILFNN | 0.0266 |

| Sequence | soluble fraction (log2) |
| --- | --- |
| HMINVGYKFKQIRENAGLTLKQVSAMSGLSVSFISQIERGVVDPSWSSLKKISAALNIKLKDLF | -2.82 |
| HMIPDLPAIGENLYRERKRQQLSMAELAAASGISKAMLSQIEADKVNPTIATLWKIAHALHVDLESLISGG | -0.965 |
| HMIPDPEKVMFDGGIRLLTQAGITEGKARSILGKWKRDHETERIIAALGAAQREGAIEPVSFIERVLRN | -0.24 |
| HMIPKIIDITDLNEEVREVIEEYMKRKRVEKYHIYQDSKGQIFIISGSAIIRYDSKLNNLYYL | -2.45 |
| HMIPLKTEAIPVSYGDGAAIIRSLAVAFPSRTFHWDAQTRRIIGQALDEEWQVIRSLVWQLDIP | -1.83 |
| HMIPLSDEETILLKLLEATETHLDALIRGSQLSAAKVSVVLMGMEMKRLVKRLPGQMYQRWD | -2.13 |
| HMIPRNLEDLVRENQIGLVILKIVEIIGEDNIRDLDPETIYFINRILNELNLKKIRNNILSEALPPR | -1.36 |
| HMIPSEQYNTALTEIGLSTRAHNSLRRAGIMTLGQLIEKTRDGLPPLPGFGDKSQVEVQDLLTGLGYPI | -0.187 |
| HMIPSGISEHPISKLPLSMSIIHRLELAGIKTIGDITGENFSRLQEIPRIGKVTAKRILEAIQSYSEQLP | -0.401 |
| HMIPYQDPLPKGAEESLLSKYPGFEITGVHFVNDTNFIGYKVRLERGEDREEISLDVNGKFL | -0.308 |
| HMIQADFIPQVEQRLADRGLSMSGDVMAAFLDRAGYGLRHVSNEIEKLSLYLGDRKKVTVEDVVQMVAPVR | -0.381 |
| HMIQAGDLVFIWNPKKGDNFLIKVTPGMSQGTHFGQIKHTELMEREYGEGIVTPKGEVYYLLRPTLAGYTR | -1.21 |
| HMIQIGEQIRYYRTKIGISQEALALMADINPAYIGQIERGIKSPTVNTIKKIANAMGINLHTLFT | -2.94 |
| HMIQKTHPALEIVKEYFSSQAASEFEAERFFNYYTSNGWLIGGKTKMKDWQAAARNWILNTAK | -0.999 |
| HMIQNEITLMLQVNGKLRGQIQVPSDASKEQIEQLAKDSEAAQKALAGASPKKIIVVPGRLVNIV | -0.792 |
| HMIQQFTYAFAKDKGVVVLPGRDVLTLGMRAGADPLVLLEARRALGSSFELEPLDRDTYERTLADVFTADA | -1.39 |
| HMIQRLNVNTEVLSTYIRNSNTPIEYLRQKLPNIDKFLKGELEPTFNQVYALSKLINIPTGLLLLKEPIS | -1.86 |
| HMIQSEQIPFSKFLKEVDSGRVVQVEIQGNNINGVLSDGSKFKTYSPNYPELVGKLSDKGVSIVASPV | 0.091 |
| HMIQTKNVTFTINEKTKIANIPLKSLKILSQEDNRITLSYEKNSLKIDEIISYFSDKNINILDITTD | -1.59 |
| HMIQYRKILELHFKDISQRTISTSVGSSRNTVSDVIKRSEQLGLERLTDNMNNRWLEEFLFPEKQ | -4.15 |
| HMIRALVPGQTLHGEIVGRNGGEVQVRLAEDMILNARVDQNIYLELGKDLTFEVKNNGATLTLSPL | -0.42 |
| HMIRDTTMYPVSVNGKKRYEWTVSKSISDDELKQQVLELEEIKKWIEGHEIKKLIFVPGRAINIV | -0.696 |
| HMIRDVDYNTFVSMVQEGKVGQVEIQEQNNRILFTDKDERTVYKTAMVPDSDLISRLLEAGVSTS | 0.359 |
| HMIRTGEVVTGKVINVKEDQIILNIGFKSDGIITRNEYTNDNSLDLRTVVHEGDEIEAKVLKVNDGEGQVV | 0.401 |
| HMIRVGRPQYKRGEFVSFDFDNGRKKTEMYGRVDVIDSYGTFGQGREVSYDIRASDGILYKHIPESSVYGF | -1.17 |
